Patent US6972324 (Boehringer Ingelheim, dated 2005)
Changes are numbered by the printed parent chain.

Experiments:
[1] = biological target: CD44v6 on human tumour cells (human) (UniProt P16070); assay: immunoreactivity assay, 125I-labelled IgG on glutaraldehyde-fixed UM-SCC-11B cells, experiment 2
[2] = biological target: CD44v6 on human tumour cells (human) (UniProt P16070); assay: immunoreactivity assay, 186Re-MAG3-labelled MAb on fixed UM-SCC-11B cells
[3] = biological target: glutathione-S-transferase fusion protein containing domains v3-v10 of human CD44 (human) (UniProt P16070); assay: SPR (BIAcore 2000), GST/CD44v3-v10 immobilized on CM5 chip
[4] = biological target: CD44v6 on human tumour cells (human) (UniProt P16070); assay: immunoreactivity assay, 125I-labelled IgG on fixed UM-SCC-11B cells, linear extrapolation to infinite antigen excess, experiment 2
[5] = biological target: glutathione-S-transferase fusion protein containing domains v3-v10 of human CD44 (human) (UniProt P16070); assay: SPR (BIAcore 2000), GST/CD44v3-v10 immobilized on CM5 chip, MAb injected at 8-67 nM
[6] = biological target: CD44v6 on human tumour cells (human) (UniProt P16070); assay: competitive cell ELISA on fixed A431 cells against mMAb BIWA 1; IC50 relative to BIWA 2
[7] = biological target: CD44v6 on human tumour cells (human) (UniProt P16070); assay: immunoreactivity assay, 131I-labelled IgG on fixed UM-SCC-11B cells, linear extrapolation to infinite antigen excess, experiment 1
[8] = biological target: CD44v6 on human tumour cells (human) (UniProt P16070); assay: immunoreactivity assay, 131I-labelled IgG on glutaraldehyde-fixed UM-SCC-11B cells, experiment 1
[9] = biological target: CD44v6 on human tumour cells (human) (UniProt P16070); assay: immunoreactivity assay, 131I-labelled IgG on glutaraldehyde-fixed UM-SCC-11B cells, experiment 3
[10] = biological target: CD44v6 on human tumour cells (human) (UniProt P16070); assay: immunoreactivity assay, 131I-labelled IgG on fixed UM-SCC-11B cells, linear extrapolation to infinite antigen excess, experiment 3
[11] = biological target: CD44v6 on human tumour cells (human) (UniProt P16070); assay: immunoreactivity assay, 131I-labelled IgG on fixed UM-SCC-11B cells, linear extrapolation to infinite antigen excess, experiment 2
[12] = biological target: CD44v6 on human tumour cells (human) (UniProt P16070); assay: immunoreactivity assay, 131I-labelled IgG on glutaraldehyde-fixed UM-SCC-11B cells, experiment 2
[13] = biological target: T1, glutathione-S-transferase fusion protein containing domains v3-v10 of human CD44 (human, UniProt P16070 267-604); assay: SPR (BIAcore 2000), GST/CD44v3-v10 immobilized on CM5 chip
T1 construct: also called GST/CD44v3-v10; recombinant antigen; not shown: glutathione-S-transferase (GST) fusion partner
T1 sequence (looked up): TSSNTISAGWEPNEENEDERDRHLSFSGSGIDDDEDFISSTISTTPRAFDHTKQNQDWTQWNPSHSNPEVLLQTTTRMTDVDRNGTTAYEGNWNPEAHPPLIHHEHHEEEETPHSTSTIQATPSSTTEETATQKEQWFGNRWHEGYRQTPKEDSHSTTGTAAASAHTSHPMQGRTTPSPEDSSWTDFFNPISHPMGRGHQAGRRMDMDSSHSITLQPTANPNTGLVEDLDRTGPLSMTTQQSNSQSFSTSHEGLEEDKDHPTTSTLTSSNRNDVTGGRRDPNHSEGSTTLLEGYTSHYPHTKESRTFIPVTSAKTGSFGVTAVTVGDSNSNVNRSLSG
Procedure: (§1) Evaluation of antibody affinity. Measurement of kinetic and affinity constants using recombinant antigen was performed on a BIAcore 2000 system (BIAcore AB, Uppsala, Sweden). A glutathione-S-transferase fusion protein containing domains v3–v10 of human CD44 (GST/CD44v3–v10; 20 μg/ml) was immobilized on a CM5 sensor chip by the amine coupling method according to the manufacturer's instructions, using 10 mM sodium acetate pH 5.0 as coupling buffer. 35 μl of MAb at various concentrations (8–67 nM) in HBS (10 mM HEPES, pH 7.4, 150 mM NaCl, 3.4 mM EDTA, 0.05% BLAcore surfactant P20) were injected over the antigen-coated surface at a flow rate of 5 μL/min. Dissociation of the MAb was assessed for 5 minutes in buffer flow (HBS). Between two analyses, the surface of the chip was regenerated with a single pulse of 15 μl 30 mM HCl. Analysis of the data and calculation of the kinetic constants were performed with BIAcore's BIAevaluation software, version 2.1. Association rates (k_a), dissociation rates (k_d), and dissociation constants (K_d) were assessed for all antibodies.
(§2) In vitro binding characteristics of the CD44v6specific MAbs. The binding affinities of the five MAbs were analyzed using recombinant antigen as well as human tumor cell lines. Kinetic and affinity constants were evaluated by surface plasmon resonance using GST/CD44v3–v10 as immobilized antigen.

[14] = biological target: CD44v6 on human tumour cells (human) (UniProt P16070); assay: competitive cell ELISA on fixed A431 cells; inhibition of binding of mMAb BIWA 1, detected with peroxidase-conjugated anti-mouse Fc; unit taken from the concentration axis
[15] = biological target: T1, glutathione-S-transferase fusion …; assay: ratio of affinities (SPR on GST/CD44v3-v10, Table 1)
[16] = biological target: T1, glutathione-S-transferase fusion …; assay: SPR (BIAcore 2000), GST/CD44v3-v10 immobilized on CM5 chip, MAb injected at 8-67 nM
Procedure: as §1, §2

[17] = biological target: CD44v6 on human tumour cells (human) (UniProt P16070); assay: immunoreactivity assay of clinical 99mTc-/186Re-MAG3-labelled BIWA 4 batches on fixed UM-SCC 11B cells
[18] = biological target: CD44v6 on human tumour cells (human) (UniProt P16070); assay: immunoreactivity assay, 125I-labelled IgG on fixed UM-SCC-11B cells, linear extrapolation to infinite antigen excess, experiment 3
[19] = biological target: CD44v6 on human tumour cells (human) (UniProt P16070); assay: immunoreactivity assay, 125I-labelled IgG on glutaraldehyde-fixed UM-SCC-11B cells, experiment 3

cMAb BIWA 2 (antibody)
Binding to 5 × 10^6 cells (%) [1]: 80.5% | immunoreactive fraction [2]: 75% | Kd relative to murine BIWA 1 [3]: 0.7 fold | Binding Extrapolated (%) (immunoreactive fraction) [4]: 79.9% | Kd [5]: 0.24 nM | koff [5]: 4.1e-05 s⁻¹ | kon [5]: 170000 M⁻¹ s⁻¹ | relative IC50 values [6]: 1

mMAb U36 (antibody)
Binding Extrapolated (%) (immunoreactive fraction) [7]: 87.4% | immunoreactive fraction [2]: 75% | Kd relative to murine BIWA 1 [3]: 35 fold | Kd [5]: 11 nM | koff [5]: 0.00017 s⁻¹ | kon [5]: 15000 M⁻¹ s⁻¹ | Binding to 5 × 10^6 cells (%) [8]: 59.7%

B1: hMAb BIWA 4 (antibody, human IgG1, kappa, V domains shown)
VH: EVQLVESGGGLVKPGGSLRLSCAASGFTFSSYDMSWVRQAPGKGLEWVSTISSGGSYTYYLDSIKGRFTISRDNAKNSLYLQMNSLRAEDTAVYYCARQGLDYWGRGTLVTVSS
VL: EIVLTQSPATLSLSPGERATLSCSASSSINYIYWYQQKPGQAPRLLIYLTSNLASGVPARFSGSGSGTDFTLTISSLEPEDFAVYYCLQWSSNPLTFGGGTKVEIKR
notes: CDR-grafted humanised version of BIWA 1 without murine framework residues; human IgG1/kappa; in the clinical study as 99mTc- or 186Re-MAG3 conjugate; also called Humanized BIWA 4; bivatuzumab
Binding to 5 × 10^6 cells (%) [9]: 77.3% | Binding Extrapolated (%) (immunoreactive fraction) [10]: 74.5% | Binding Extrapolated (%) (immunoreactive fraction) [11]: 82.3% | Binding to 5 × 10^6 cells (%) [12]: 77.4% | Kd relative to murine BIWA 1 [13]: 10.5 fold | IC50 [14]: 8.01 µg/mL | immunoreactive fraction [2]: 75% | fold lower affinity than cMAb BIWA 2 [15]: 14 fold | fold lower affinity than hMAb BIWA 8 [15]: 4 fold | Kd [16]: 3.4 nM | koff [16]: 0.00022 s⁻¹ | kon [16]: 65000 M⁻¹ s⁻¹ | immunoreactive fraction [17]: 80% | relative IC50 values [6]: 44

B2: hMAb BIWA 8 (antibody, human IgG1, kappa, V domains shown)
VH: B1 VH
VL: B1 VL with Y35L, L45I
notes: CDR-grafted humanised version of BIWA 1 with two murine residues in light chain framework 2; human IgG1/kappa; also called Humanized BIWA 8
Kd relative to murine BIWA 1 [13]: 2.6 fold | IC50 [14]: 0.335 µg/mL | immunoreactive fraction [2]: 75% | Binding Extrapolated (%) (immunoreactive fraction) [18]: 92.1% | Kd [16]: 0.84 nM | koff [16]: 6.3e-05 s⁻¹ | kon [16]: 75000 M⁻¹ s⁻¹ | Binding to 5 × 10^6 cells (%) [19]: 91.8% | relative IC50 values [6]: 2
